Test results reported in patent US20240324599A1, “PESTICIDAL ENZYMES FOR USE ON NEMATODES, INSECTS, AND MOLLUSKS” (priority 2023, published 2024).

Legend:
Assay type in all cases: in vivo
[1] = test system: Diamondback moth (Plutella xylostella); test: Diet-surface overlay (DSO) bioassay; details: Table 41, individuals of n = 16 after 7 days
Method: (§1) Diet-surface overlay bioassays are conducted with artificial diet mixes without antibiotics in 1.5 cm^2 cell bioassay trays(s). Artificial diets are commercially available from Southland Products Inc. Diets were prepared by dispersing 0.5 mL of molten diet to each 1.5 cm^2 cell. After solidification, 0.1 mL enzyme treatments were dispersed on top of diet in each cell and the tray was gently rocked in an orbital shaker to spread the liquid uniformly over the diet surface. Trays were placed under clean airflow until the surface of each cell was uniformly dried. One or two 16-cell sections were used per treatment (the number in larvae treated was 16 or 32).
(§2) One healthy first instar larva was placed into each treatment cell, each 16-cell section was covered with a re-sealable lid and incubated at 27° C. and light-dark period of 16:8 hrs. After 7 days, and according to the species, the number of individuals in the following developmental categories was recorded.
(§3) Diamondback moth (Plutella xylostella): Dead Larva (lack of movement), Larva Stage I (≤50% relative size), Larva Stage II (100% relative size, full size), Early Pupa (light green color), Late Pupa (light-dark brown color), and Adult.
(§4) Negative/untreated controls were treated with filtered water and positive controls were treated with lethal doses of Bacillus thuringiensis subsp. Kurstaki (Btk) spores at 1000 ppm.

[2] = test system: Btk resistant Diamondback moth; test: Diet-surface overlay (DSO) bioassay
Method: as §1, §2, §3, §4
However, both neutral proteases reduced the number of individuals reaching adult stage.

[3] = test system: Fall armyworm (Spodoptera frugiperda); test: Diet-surface overlay (DSO) bioassay
Method: as §1, §2, §4

[4] = test system: Black gloss snails (Zonitoides nitidus); test: Antifeedant and molluscicide bioassay (artificial diet): consumption, survival, weight gain; details: Table 63; n = 12, 7 days; control diet 2.50
Method: Two-week old garden snails (Cornu aspersum) and full-size black gloss snails (Zonitoides nitidus) were maintained in a semi-darkened tank at 68-70° F. at high humidity, provided with a wet sponge in a petri dish. Snails were transferred to fresh tank every 2-3 days, and they were feed ad libitum with cucumber slices supplemented with calcium carbonate tablets. Individuals were reared in the laboratory for at least a week to fully acclimate to laboratory conditions prior to testing. The individuals ranged between 3 weeks to 2 months old at the time of bioassay.
Filter-sterilized recombinant enzymes including proteases and lipases were prepared as indicated in Example 25. Corresponding controls (e.g., buffer, fermentation of non-recombinant strain, water) were be prepared accordingly. […]
12 snails were randomly assigned to each treatment, labeled with permanent marker on the top of the shell for identification, and their weight (mg) was recorded before treatment. […] At the time of treatment replacement, treatment consumption, weight, and mortality were recorded.
Alkaline Protease and Keratinase and Lipases from Pseudomonas fluorescens (Pf,), were prepared as described above and their antifeedant and molluscicidal effects were tested. […] The units (U) of enzyme activity was determined as the amount of enzyme required to breakdown 1 μM of substrate per minute. […]

[5] = Table 42, Btk resistant, n = 32, doses as E69, water 0
[6] = Table 43, n = 32, Keratinase 260 U/mL diet, water 0

B1: Keratinase: protease resuspended in water at 0.25 g/mL (protein, listed as Bacillus licheniformis)
chain: MMRKKSFWLGMLTAFMLVFTMAFSDSASAAQPAKNVEKDYIVGFKSGVKTASVKKDIIKESGGKVDKQFRIINAAKAKLDKEALKEVKNDPDVAYVEEDHVAHALAQTVPYGIPLIKADKVQAQGFKGANVKVAVLDTGIQASHPDLNVVGGASFVAGEAYNTDGNGHGTHVAGTVAALDNTTGVLGVAPSVSLYAVKVLNSSGSGSYSGIVSGIEWATTNGMDVINMSLGGASGSTAMKQAVDNAYARGVVVVAAAGNSGSSGNTNTIGYPAKYDSVIAVGAVDSNSNRASFSSVGAELEVMAPGAGVYSTYPTNTYATLNGTSMVSPHVAGAAALILSKHPNLSASQVRNRLSSTATYLGSSFYYGKGLINVEAAAQ
modifications: Protease _ keratinase
notes: protease resuspended in water at 0.25 g/mL
Question: What does the source list for B1?
Answer: Dead Larva ([1]; U/mL diet: SEQ 127 0.206, Acid 2.5, Alkaline 190, Neutral 20, Keratinase 26, Btk spores 1000 ppm, water 0): 1; Larva Stage I ([1]; doses as E63, water 0): 0; Larva Stage II ([1]; doses as E63, water 0): 0; Early Pupa ([1]; doses as E63, water 3): 11; Late Pupa ([1]; doses as E63, water 3): 4; Adult ([1]; doses as E63, water 10): 0; Dead Larva ([2]; Table 42, Btk resistant strain, individuals of n = 32 after 7 days, U/mL diet: SEQ 127 2, Neutral 200, Keratinase 260, water 1): 19; Larva Stage I [2, 5]: 11; Larva Stage II [2, 5]: 2; Early Pupa ([2]; Table 42, Btk resistant, n = 32, doses as E69, water 1): 0; Adult ([2]; Table 42, Btk resistant, n = 32, doses as E69, water 8): 0; Late Pupa ([2]; Table 42, Btk resistant, n = 32, doses as E69, water 22): 0; mortality ([2]; text to Table 42, 10× higher protease activity rate): more than 50%; effect on Btk resistant Diamondback moth larvae, in words ([2]; text to Tables 42, 45, 47): strong stunting of survival larvae; Dead Larva ([3]; Table 43, individuals of n = 32 after 7 days, Keratinase 260 U/mL diet, water 2): 32; Larva Stage I [3, 6]: 0; Larva Stage II [3, 6]: 0; Larva Stage III [3, 6]: 0; Larva Stage IV ([3]; Table 43, n = 32, Keratinase 260 U/mL diet, water 30): 0; effect on Fall armyworm larvae, in words ([3]; text to Tables 43, 46, 48, 50): lethal; Diet consumption [4]: 0.70 g
